Test results as given in US8133482B2, “Activatable photodynamic therapy agents” (The Trustees of the University of Pennsylvania, priority 2003, dated 2012).
The star is where a group is joined. Mu = morpholinocarbonyl cap, O=C(N1CCOCC1)*; Dox = doxorubicin

Tests used:
PSA = PSA (Homo sapiens, UniProt P07288); conditions: incubation with enzymatically active PSA, HPLC detection; cited from earlier work
[1] = photophysical properties of pyropheophorbide acid (1O2 yield); assay type: physicochemical

PSA, sequence (P07288 25-261): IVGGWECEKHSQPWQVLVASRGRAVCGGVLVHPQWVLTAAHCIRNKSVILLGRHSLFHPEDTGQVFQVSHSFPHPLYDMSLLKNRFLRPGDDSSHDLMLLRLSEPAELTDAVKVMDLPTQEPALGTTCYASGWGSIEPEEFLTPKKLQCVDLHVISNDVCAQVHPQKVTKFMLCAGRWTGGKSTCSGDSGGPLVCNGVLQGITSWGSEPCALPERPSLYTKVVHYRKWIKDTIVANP

| Molecule | hydrolysis by PSA (PSA) | 1O2 yield [1] [%] |
| --- | --- | --- |
| Mu-HS SKLQ(SEQ ID NO:13)-Leu-Dox (Mu-HSSKLQL-Dox) | resulted in production of Leu-Dox | – |
| C=Cc1c(C)c2cc3nc(c4c5[nH]c(cc6nc(cc1[nH]2)C(C)=C6CC)c(C)c5C(=O)C4)[C@@H](CCC(=O)O)[C@@H]3C [Pyropheophorbide acid, pyropheophorbide acid] | – | 45 |
| Ac-HSSKLQ(SEQ ID NO:13)-Dox (Ac-HSSKLQ-Dox) | unable to hydrolyze | – |
